Measurements: patent US20190002514A1 (Dana-Farber, published 2019)
Substitutions are numbered along the chain they refer to. Names and notes keep the numbering of the source. Starred links: 1 amine or outer side, 2 acyl side, 3 side chain; linkers in the order of their positions; H or OH if unused. Positions of bridges follow the written chain, without caps; N, C: chain ends. Non-standard residues stand in square brackets, D forms with d. No end group written: not given here. *: point of attachment. Nip(3R) = O=C([C@@H]1CCCN([*:1])C1)[*:2]; S5 = C=CCCC[C@](C)(N)C(=O)O; Acryloyl = C=CC(=O)*

Experiments:
BFL-1 C4S/C19S/C55S = biological target: T1, BFL-1 C4S/C19S/C55S; assay: biolayer interferometry (Octet RED384): biotin-PEG-NOXA SAHB on super streptavidin tips, BFL-1ΔC construct in solution
T1 construct: member of m33; m12 without cysteines; also called BFL-1ΔC C4S/C19S/C55S
T1 chain: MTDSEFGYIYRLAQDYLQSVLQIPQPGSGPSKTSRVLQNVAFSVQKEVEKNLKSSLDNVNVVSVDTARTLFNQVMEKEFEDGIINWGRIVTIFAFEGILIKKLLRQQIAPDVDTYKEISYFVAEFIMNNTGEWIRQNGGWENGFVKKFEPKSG
Procedure: (§1) Excess streptavidin was quenched by incubation with 2 μg/mL biocytin. The tips were then washed with kinetics buffer and soaked in a serial dilution of BFL-1ΔC for 10 min to measure association rate, followed by a 15 min incubation in kinetics buffer to measure dissociation rate. Dissociation constants were calculated using Octet Data Analysis version 9.0.

BFL-1ΔC (aa 1-153) [1] = biological target: T2, BFL-1ΔC (aa 1-153) (human, UniProt Q16548 1-153); assay: as above
T2 construct: Recombinant, expressed in E. coli; the recombinant construct's species is not restated; also called wild-type BFL-1ΔC; BFL-1 WT; not shown: N-terminal His tag and vector-derived linker of pET19b
T2 sequence: T1 chain with S4C, S19C, S55C
Procedure: as §1

BFL-1ΔC C4S/C19S [2] = biological target: T3, BFL-1ΔC C4S/C19S (human, UniProt Q16548 1-153); assay: as above
T3 construct: range 1-153; Recombinant, E. coli; made by site-directed mutagenesis; also called His-BFL-1ΔC C4S/C19S; C55-only BFL-1; not shown: N-terminal His tag from the pET19b vector
T3 sequence (looked up): T1 chain with S55C
Procedure: as §1

[3] = biological target: T4, Bfl-1 (recombinant protein of Examples 1-4) (UniProt Q16548 1-153, limits assumed); assay: fluorescence polarization: FITC-labelled SAHB, anti-apoptotic protein serially diluted from 1 µM
T4 construct: also called 9xHis-tagged Bfl-1
T4 sequence (looked up): T1 chain with S4C, S19C, S55C
Procedure: (§2) The solution-state equilibrium binding assay was used to determine binding affinities of the stapled peptides to the anti-apoptotic proteins. Proteins were serially diluted from 1 μM, then combined with FITC-labeled SAHB and polarization measured at 5 min on a microplate reader. We then calculated dissociation constants (KD) by nonlinear regression analysis of dose-response curves.

[4] = biological target: T5, MCL-1 (recombinant protein of Examples 1-4) (UniProt Q07820 170-327, limits assumed); assay: as above
T5 construct: also called MCL-I
T5 sequence (Q07820 170-327 limits assumed): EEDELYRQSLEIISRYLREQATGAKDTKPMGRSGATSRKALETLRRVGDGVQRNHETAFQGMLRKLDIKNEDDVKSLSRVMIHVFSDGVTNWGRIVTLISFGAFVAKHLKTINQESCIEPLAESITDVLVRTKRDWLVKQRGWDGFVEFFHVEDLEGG
Procedure: as §2

BFL-1ΔC C4S/C19S [5] = biological target: T3, BFL-1ΔC C4S/C19S; assay: covalent conjugation, 10:1 peptide:protein, reducing and denaturing gel, Coomassie
Procedure: Processing for gel electrophoresis and Coomassie staining was performed as above.

[6] = biological target: T6, native BFL-1 (A375P melanoma cells) (human, UniProt Q16548 1-175); assay: A375P lysates with biotinylated peptides, streptavidin pull-down, BFL-1 western analysis; also biotinylation of purified mitochondria
T6 construct: also called native mitochondrial BFL-1
T6 sequence: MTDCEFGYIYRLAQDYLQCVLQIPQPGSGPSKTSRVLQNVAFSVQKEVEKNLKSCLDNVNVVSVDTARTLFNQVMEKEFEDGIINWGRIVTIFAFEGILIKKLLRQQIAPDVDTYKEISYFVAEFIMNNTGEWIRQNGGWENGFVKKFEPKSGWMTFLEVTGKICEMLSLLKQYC

BFL-1ΔC (aa 1-153) [7] = biological target: T2, BFL-1ΔC (aa 1-153); assay: covalent conjugation assay, gel shift
HA-BFL-1ΔC C4S/C19S = biological target: T7, HA-BFL-1ΔC C4S/C19S (human, UniProt Q16548 1-153); assay: crosslinking in lysates of transfected 293T cells, anti-HA and biotin western analysis
T7 construct: range 1-153; tested in lysates and in intact cells; also called expressed BFL-1; not shown: HA tag
T7 sequence (looked up): T1 chain with S55C
Procedure: For lysate experiments, cells were trypsinized 24 hours post-transfection, washed with PBS, and lysed by incubation with 1% CHAPS lysis buffer (150 mM NaCl, 50 mM Tris pH 7.4, 100 mM DTT). Protein concentration of the soluble fraction was measured using a BCA kit according to manufacturer's instructions (Thermo Scientific). […] Samples were then boiled in LDS buffer and subjected to western analysis using 1:1000 dilutions of HA (Sigma-Aldrich, #12CA5) and biotin (Abcam, #53494) antibodies. […] After 24 h, cells were trypsinized, washed with PBS, lysed in 1% CHAPS buffer, and the supernatant collected for protein concentration determination by BCA kit. […] The mixtures were then subjected to HA or FLAG (Sigma-Aldrich, F7425) immunoprecipitation, followed by western analysis using 1:1000 dilutions of HA, FLAG, biotin, and BID (Santa Cruz sc-11423) antibodies. […] Cells were harvested and lysed as above, and incubated overnight with anti-HA agarose beads (Pierce). The beads were washed 3 times with lysis buffer, eluted by boiling in LDS buffer, and subjected to western analysis with HA and biotin antibodies.

B1: NOXA SAHBA (peptide)
peptide: AELEVECATQLR[S5]FGD[S5]LNFRQKLL
modifications: staple 13-17; also: N-terminal PEG-biotin or FITC depending on assay
notes: Stapled NOXA BH3 (aa 19-43) with native C25; also called WT NOXA SAHB; wild-type NOXA SAHBA
With B1 the Kd (BFL-1 C4S/C19S/C55S) was 118 nM, the Kd (BFL-1ΔC (aa 1-153) [1]) was 122 nM and the Kd (BFL-1ΔC C4S/C19S [2]) was 165 nM. For the same binder, the “EC50 (read off the curve)” value [3] was about 100 nM and the “EC50 (read off the curve)” value [4] was about 200 nM.

B2: NOXA SAHBA C25S (peptide)
peptide: AELEVESATQLR[S5]FGD[S5]LNFRQKLL
modifications: staple 13-17; also: N-terminal PEG-biotin or FITC depending on assay
notes: Stapled NOXA BH3 with C25S; also called NOXA C25S SAHB; C25S mutant peptide
B2 was tested, and the Kd (BFL-1 C4S/C19S/C55S) was 58.2 nM, the Kd (BFL-1ΔC (aa 1-153) [1]) was 46.6 nM and the Kd (BFL-1ΔC C4S/C19S [2]) was 47.2 nM.

With AELEVECATQLR[S5]YGD[S5]LNFRQKLL (staple 13-17; also: FITC-labelled for FP assay) [NOXA SAHBA F32Y] the “EC50 (read off the curve)” value [3] was about 200 nM and the binding result [4] was “no binding (tested: 1e-6 M)”.

B3: NOXA SAHBA bearing warhead 5 (peptide)
peptide: Acryloyl-PEVESATQLR[S5]FGD[S5]LNFRQKLL
modifications: staple 11-15; also: X1 proline L or D not settled
notes: Member of the NOXA SAHBA warhead panel 1-8
B3: binds (BFL-1ΔC C4S/C19S [5]).

B4: NOXA SAHBA bearing warhead 1 (peptide)
peptide: Acryloyl-[(3S)‑pyrrolidine‑3‑carboxylic acid]EVESATQLR[S5]FGD[S5]LNFRQKLL
modifications: staple 11-15
notes: as for B3
B4: binds (BFL-1ΔC C4S/C19S [5]).

B5: BIM SAHBA bearing warhead 1 (peptide)
peptide: [(3S)‑1‑acryloylpyrrolidine‑3‑carboxylic acid]IAQELR[S5]IGD[S5]FNAYYARR
modifications: staple 8-12
notes: Member of the BIM SAHBA warhead panel 1-8
B5: binds (BFL-1ΔC C4S/C19S [5]).

B6: BIM SAHBA bearing warhead 8 (peptide)
peptide: Acryloyl-IAQELR[S5]IGD[S5]FNAYYARR
modifications: staple 7-11
notes: as for B5
B6: binds (BFL-1ΔC C4S/C19S [5]).

B7: BIM SAHBA-3 (peptide)
peptide: [Nip(3R)](Acryloyl)IAQELR[S5]IGD[S5]FNAYYARR
modifications: staple 8-12
notes: Warhead-bearing BIM SAHBA (aa 147-166); also called BIM SAHBA-WH with warhead 3; biotinylated BIM SAHBA-3
B7: binds [6]; binds (BFL-1ΔC (aa 1-153) [7]); binds (HA-BFL-1ΔC C4S/C19S). B7: binds (BFL-1ΔC C4S/C19S [5]).
